# Data: the nanobody polyreactivity screen of Harvey et al. (2022)
# Experiment: yeast display, Sf9 membrane polyspecificity reagent, FACS + sequencing; frameworks hold sequencing errors
# How it was run: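 Using colony PCR, genes from sorted yeast display clones were amplified, then sequenced on MiSeq at 2 × 250 and filtered by CDR length. The clones had been stained with 10% biotinylated, detergent-solubilized Sf9 membrane reagent for 1 hour at 4 °C and sorted by FACS into low and high (top ~1%) gates on anti-HA and streptavidin fluorescence. Polyreactivity labels come from the gate of origin.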
sequence,measurement,value
QVQLVESRGGLVQAGGSLRLSCAASGYIFGDYAKGWYRQAPGKERELVAAITQTGGNTYYADSVKGRFTISRDNAKKTVYLQMNSLKPEDTAVYYCAAPALGNYFYGYDYWGQGTQVTVSS,polyreactivity (PSR sort gate),low polyreactivity
QVQLVESRGGLVQAGGSLRLSCAASGYTFQRYAMGCYRQAPGKEREMVAAISWSSGTTYYADSVKGRFTISRDNAKNTVYLQMNSLKPEDTAVYYCAAAGRQSGGRFYYWGQGTQVTVSS,polyreactivity (PSR sort gate),high polyreactivity
QVQLVESRGGLVQAGGSLRLSCAASVGTFGLNAMGWYSQAPGKERELVADIDGRGGSTYYADSVKGRFTISRDNAKNTFDLQMNSLKPEDTAVYYSAARAPFLSVPSELDYWGQGTQVTVSS,polyreactivity (PSR sort gate),low polyreactivity
QVQLVESRGGLVQAGGSLRLSCDASGSTIFENVMGWYRQAPGKEREFVAAINTSGGSTYYADSVKGRFTISRDNAKNTVYLQMNSLKPEDTAVYYCARDSYWEMDYWGQGTQVTVSS,polyreactivity (PSR sort gate),low polyreactivity
QVQLVESRGGLVQAGGSLRLSCPASGSTFVSNAMGWYRQAPGKERELVAAISKSGGSTYYADSVKGRFTISRDNAKNTVYLQMISLKPEDTAVYYCAKYNAKSFYGQYDYWGQGTQVTVSS,polyreactivity (PSR sort gate),high polyreactivity
QVQLVESRGGLVQAGGSLRLSFAASGFTFGSYSMVWYRQAPGKERELVADITRRGDNTYYADSVKGRFTISRDNAKNTVYLQMNSLKPEDSAVYYCNAAKGGRYPDYDYWGQGTQVTVSS,polyreactivity (PSR sort gate),high polyreactivity
QVQLVESRGGLVQAGGSLRLSFAASGSTFIKNAMGWYRQAPGKEWELVAAITSGGSRSYADSVKGRFTISRDNAKNTVYLQMNSLKPEDTAVYYCATDHDIGYNFYRYDYWGQGTQVTVSS,polyreactivity (PSR sort gate),low polyreactivity
QVQLVESRGGLVQAGGSLRLSSASSGSIFDIYEMGRYRQAPGKERELLASITWSRGSTYYADSVKGRFTISRDNAKNSVYLQINCLKPEDTAVYYCGTDKLFGRTVRMDYWGQGTQVTVSS,polyreactivity (PSR sort gate),low polyreactivity
QVQLVESRGGLVQAGGSLRLTCAASGYTFVYNGMGWYRQAPGKERELVAAFRRRTGTTYYADSVKGRFTISRDNAKNTVYLQMNSLKPEDSSVYYSAATGFWCYDWGQGSQVTVSS,polyreactivity (PSR sort gate),high polyreactivity
QVQLVESRGGLVQAGGSLRVSCAASGRTFGVNAMGWYRQAPGKERELVAAISTSGGSTYYADSVKGRFTISRDNAKNTVYLQMNSLIPEDTAVYYCNTGRGRYVHGRDYDYWGQGTQVTVSS,polyreactivity (PSR sort gate),low polyreactivity
QVQLVESRGGLVQARGSLRLSSAASGFIFNANAMGCYRPAPGKESELVAAIDDGDSTYADSVKGRFTISRDNAKNTVYLQMNSLKPEDTAVYYCAVDGGEFSSYGYWGEGTQVTVSS,polyreactivity (PSR sort gate),low polyreactivity
QVQLVESRGGSVQAGGSLRLSCAASGNIFYYAMGWYRQAPGKERELVAAISASGGSSYYADSVKGRFTISRDNAKNTVYLQMNSLKPEDTAVYYCKAVFYRGPGAQGDPRRRSDYWGQGTQVTVSS,polyreactivity (PSR sort gate),high polyreactivity
QVQLVESRGVLVQAGGSVRVSCAASGSTFTFNAMGWYRQAPGKVRELVADITSGGRTNYADSVKGRFTISRDNAKNTVYLQMNSLKPEDTAVYYCAARWWAHEYPGYDSWGQGTQVTVSS,polyreactivity (PSR sort gate),low polyreactivity
QVQLVESRRGLVQAGGSLRLSCAASGRISNEYAMVWSRQAPGKERELVATITFSGGDTYYADSVKGRFTISRHNAKNTVYLHKNSLKPEDSAVYYCAASKWRSYCGGWWRLQFDYWGQGTQVTVSS,polyreactivity (PSR sort gate),low polyreactivity
QVQLVESSGGLVQAGGSLRLSCAASGFNFKRYAMGWSRQAPGKEREMVAAINSGGSTNYADSVKGRFTISRDNAKNTVYLQMNSLKPEDTAVYYCAASTSRYYWYALRDYWGQGTQVTVSS,polyreactivity (PSR sort gate),high polyreactivity
QVQLVESSGGLVQAGGSLRLSCAASGITFYYYAMGWYRQAPGKERELVAVITGNGGRTYYADSVKGRFTISRDNAKNTVYLQMNSLKPEDTAVYYCAALYDGIYDSWGQGTQVTVSS,polyreactivity (PSR sort gate),high polyreactivity
QVQLVESVAGLVQAGGSLRLSCAASGSTFTGNAMGWYRQAPRKERELVAAITKGGSRTYYADSVKGRFTISRDNAKNTVYLQMNSLKPEDTAVYYCAAIERYSYLLYPKFDYWGQGTQVTVSS,polyreactivity (PSR sort gate),high polyreactivity
QVQLVESVGALVQAGGSLRLSCAASGSIFGSNAMGGYRQAPGKERELVAAITWSGTSTYYADSVKGRFTISRDNAKNTVYLQMNSLKPEDTAVYYCARGGYVRAARLVIPYYYWGQGTQVTVSS,polyreactivity (PSR sort gate),low polyreactivity
QVQLVESVGCLVQARGSLRLSSAASGLIFPKYAMGWYRPAHGKERELVAAISSSGGSTYYADSVMGRFTISRVNAKNTVYLQMNSLKPEDTAVYYCAAKRFTTVTGYGYWGQGTQVTVSS,polyreactivity (PSR sort gate),high polyreactivity
QVQLVESVGGIVQAGGSLRLSCAASGITLYWYAMGWYRQAPGKERELVAAISRRGGTTYYADSVKGRFTISRDNAKINVFLQMHSLNPEDTAVYYCAKAPDTQTSWSRQEGTYWGQGTQVTVSS,polyreactivity (PSR sort gate),low polyreactivity
QVQLVESVGGLAQSRGSLRLSCAASGRTFFPNAMGWYRQAPGKERELVAAITNGDSTHYADSVKRRFTISRDNAKNTVYLQMNSLKPEDTADYYCAAEDHYEGYGGYYWGQVTQVTVSS,polyreactivity (PSR sort gate),low polyreactivity
QVQLVESVGGLDQAGGSLRLSCAASGSTFSLYTIGWYRQAPGKERELVASISRGGGSTYYADSVKGRFTISRDNAKNTVYLQMNSLKPEDTAVYYCASGTLYFYSHNPEDDFDYWGQGTQVTVSS,polyreactivity (PSR sort gate),high polyreactivity
QVQLVESVGGLDQAGGSLRLSCAASGYTFSLNAMGWYRQAPGKEREFVATIRSSGARTSYADSVKGRFTISRDNAKNTVYLQMNSLKPEDTAVYYCAARYYNSYRYAMGYWGQGTQVTVSS,polyreactivity (PSR sort gate),high polyreactivity
QVQLVESVGGLDQAGGSLRLSGAASGSIFAHYAMGWYRQAPGKETELVARISWSGGSTYYADSVKGRFTISRDNAKNTVYLQMNSLKPEDTAVYYCARAGRSWDTLYKYYLEHDYWGQGTQETVSS,polyreactivity (PSR sort gate),low polyreactivity
QVQLVESVGGLDQAGVSLRLSCPASVRTLSKNSMGWYRQAPGKARELVATISSVGRTNYAVSVKGRFTISRDNAKNTVYLQMKSLKREDTAVYYCDARRFRGSYYWGLGTQVTVSS,polyreactivity (PSR sort gate),high polyreactivity
QVQLVESVGGLLQAGGRLRLSCAASGSTFGKYVMGWYRPAPGTERELVAAISLSGGSTYYADSVKGRFTISRDNAKNTVYLQMNCRKPEDTALNYCATVGYGYDYWGQATQVTVSS,polyreactivity (PSR sort gate),high polyreactivity
QVQLVESVGGLLQAGGSLRLSCAASGRIFTGYAMGWYRQAPGKERELVAAISSRGGSTYYADSVKGRFTISRDNAKNTVYLQMNSLKPEDTAVYYCNAYQWRHRYTMYYWGQGTQVTVSS,polyreactivity (PSR sort gate),high polyreactivity
QVQLVESVGGLVEAGGRLGISCDDSGIIFRVNTIGCYRQAPGKERELVARSTGAGNKYYADSVKGRFTISRDNAKTTVYLQMNSLKPKDTAVYYCAVREFDNRRVIFYYWGQGTQVTVLS,polyreactivity (PSR sort gate),high polyreactivity
QVQLVESVGGLVQAGASLRLSCAASGRTFATYAKGWYRQAPGKERELVAAISRSGGSTYYADSVKGRFTISRDNAKNTVYLQMHSLKPEDTAGYYCAARYVRQYYRAEDYWGQGTQVTVSS,polyreactivity (PSR sort gate),high polyreactivity
QVQLVESVGGLVQAGASLRLTCAASGSIFWYAMGWYRQAPRQERELVAGISRGGSTYYADSVKGRFTISRDNAKNTVYLQMNSLKPEDTAVYYCNTAGYYGTPSNYWGQGTQVTVSS,polyreactivity (PSR sort gate),low polyreactivity
QVQLVESVGGLVQAGGILRLSCAPSGSTFDVYAMGWYRQAPAKERELVAAISWTGGSTYYADSVKGRFTISRDNAKNTVYLQMNRLKPEDTAVYYCAAYEIQTPRIAHYVGCGRDYLGQGTQVTVSS,polyreactivity (PSR sort gate),high polyreactivity
QVQLVESVGGLVQAGGRLRLSCAASGITFEPYAMGWYRPAPGKEREFVADITWSGGSTYYADSVKGRFTISRDNAKNTVYLQMNSLKPEDTAVYYCAADGWTSYWSDYWGQGTQVTVSS,polyreactivity (PSR sort gate),low polyreactivity
QVQLVESVGGLVQAGGSLPLSCDASGSIFFYYAMGWSRHAPGKESELVAAIDFNGGTTYYADSVKGRFTISRDTAKITVYLQMNSLTPEDTAVYYCAAEWEGTYSTVPDEFNYWGQGTQVTVSS,polyreactivity (PSR sort gate),high polyreactivity
QVQLVESVGGLVQAGGSLRISCAASGFIFKSYSMGWYRQAPGKERELVAAISWIGGRTYYADSVKGRFTISRDNAKYTVYLQMNSLKPEDTAVYYCAKVVKYQSGGGLEYWGQGTQVTVSS,polyreactivity (PSR sort gate),high polyreactivity
QVQLVESVGGLVQAGGSLRISCAASGRIFYNYAMGRYRQAPGKERELVAAISGSGGSTYYADSVKGRFTISRDIAKNTVYLQMNSLIPEDTAVFYCSTSGPQYYSRNFDYWGQGTQVTVSS,polyreactivity (PSR sort gate),low polyreactivity
QVQLVESVGGLVQAGGSLRLICAASGSIFSPYAMGWYRQAPGKERELVAAINFNGGTTYYADSVKGRFTISRDNAKNTVDLQMNSLKPEDTAVYYCAADEVPGFGYPPYPWFDYWGQGTQVTVSS,polyreactivity (PSR sort gate),low polyreactivity
QVQLVESVGGLVQAGGSLRLSCAASGFIFAFYAMGWYRQAPGKESELVAAIRTGGSTNYADSVKGRFTISRDNAKNTVYLQMNSLKPEDTAVYYCAAYGRGGYWRWERDYWGLGTQVTVSS,polyreactivity (PSR sort gate),high polyreactivity
QVQLVESVGGLVQAGGSLRLSCAASGFIFNPYAMGWYRQAPGKERELVAAISWRGASTYYADSVKGRFTISRDNAKNTVYLQMNSLNPEDTAVYYCAADLAYSSTASDYEYWGQGTQVTVSS,polyreactivity (PSR sort gate),low polyreactivity
QVQLVESVGGLVQAGGSLRLSCAASGFIFSYYAMGGYRQAPGKERELVAAISKTGGNTYYADSVKGRFTISRDNAKNTVYLQMNSLKPEDSAVYYCNALRGDWRDMGYWGQGTQVTVSS,polyreactivity (PSR sort gate),high polyreactivity
QVQLVESVGGLVQAGGSLRLSCAASGFIFYWYAMGWYRQAPGKERELVAAITRSGGRTYYADSVKGRFTISRDNAKNTVYLQMNSLKPEDTAVYYCNAGYWLSPYKFGYWGQGTQVTVSS,polyreactivity (PSR sort gate),high polyreactivity
QVQLVESVGGLVQAGGSLRLSCAASGFNFRVYPMGWYRPAPRKERELVAAISVSGGSTTYADSVNGRFTISRDNAKNTVYLQMNSLKPEDTAVYYCAADYDFFSLYLYDYWGQGTQVTVSS,polyreactivity (PSR sort gate),low polyreactivity
QVQLVESVGGLVQAGGSLRLSCAASGFTFASNAMGWYRQAPGKERELVAAISRSGGSTFYADSVKGRFTISRDNAKNTVYLQMNSLKPEDTAVYYCAADIWRVYSTFYYWGQGTQVTVSS,polyreactivity (PSR sort gate),low polyreactivity
QVQLVESVGGLVQAGGSLRLSCAASGFTFDENAMGWYSQAPGINYSGASTYYADSVKGRFTLSRDNAKNTVYLQMNSLKQEDTAVNYCAAEVVAQLNYWGPGTQVTVSS,polyreactivity (PSR sort gate),low polyreactivity
